In patent US20260209387A1, “SINGLE-DOMAIN ANTIBODY FOR INHIBITION OF NEUTROPHIL ELASTASE ACTIVITY” (UNIVERSITE DE LIEGE, priority 2023, published 2026):
Each block holds one binder with its values, some of them ahead of it.

How the values were obtained:
[1] = biological target: T1, human neutrophil elastase (human, UniProt P08246 30-247, glycans (NAG-NAG-FUC) at N109 and N204, chymotrypsinogen numbering, seen in the crystal); assay: cell-based or functional assay
T1 sequence: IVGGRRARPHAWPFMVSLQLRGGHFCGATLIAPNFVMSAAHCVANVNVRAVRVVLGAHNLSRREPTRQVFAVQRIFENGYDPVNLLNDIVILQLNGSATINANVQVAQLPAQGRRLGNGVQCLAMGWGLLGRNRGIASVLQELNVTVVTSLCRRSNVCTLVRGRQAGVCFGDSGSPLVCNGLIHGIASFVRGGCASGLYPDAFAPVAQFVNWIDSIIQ

human proteinase 3 [2] = biological target: T2, human proteinase 3 (human, UniProt P24158 28-248); assay: cell-based or functional assay
T2 sequence (looked up): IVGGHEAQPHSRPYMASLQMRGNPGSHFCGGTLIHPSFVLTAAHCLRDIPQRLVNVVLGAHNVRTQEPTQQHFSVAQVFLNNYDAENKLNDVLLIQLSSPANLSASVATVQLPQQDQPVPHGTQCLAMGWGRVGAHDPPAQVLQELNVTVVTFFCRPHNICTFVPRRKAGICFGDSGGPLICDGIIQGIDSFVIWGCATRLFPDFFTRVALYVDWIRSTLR

[3] = biological target: T1, human neutrophil elastase; assay: cell-based or functional assay; remark: listed apart in the source
[4] = biological target: T3, mouse neutrophil elastase (mouse, UniProt Q3UP87 29-265, limits assumed); assay: cell-based or functional assay
T3 sequence (looked up): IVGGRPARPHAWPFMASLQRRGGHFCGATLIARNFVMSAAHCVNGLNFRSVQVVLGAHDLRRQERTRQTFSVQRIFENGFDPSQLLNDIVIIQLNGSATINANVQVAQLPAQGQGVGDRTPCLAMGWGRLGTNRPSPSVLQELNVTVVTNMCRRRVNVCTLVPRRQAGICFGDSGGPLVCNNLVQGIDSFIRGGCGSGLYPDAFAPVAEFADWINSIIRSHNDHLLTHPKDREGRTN

[5] = biological target: T3, mouse neutrophil elastase; assay: enzymatic assay, substrate MeOSuc-Ala-Ala-Pro-Val-AMC, Morrison equation for tight binders, N=6
Method: The substrate used were Succinyl-Ala-Ala-Ala-paraNitroAnilide (1 mM in 0.1 M Tris pH 7.5 with NaCl 0.5 M and NaN3 0.01%, % w/v from Sigma-Aldrich) for pPE, MeOSuc-Ala-Ala-Pro-Val-AMC (100 μM in Tris 50 mM, NaCl 1 M, 0.05% (% w/v) Brij-35, pH 7.5) for mNE, N-Succinyl-Ala-Ala-Pro-Phe p-nitroanilide (0.45 mM in 100 mM HEPES pH 7.5, from Sigma Aldrich) for hCG and Boc-Ala-Ala-Nva-SBzl (0.22 mM in 100 mM MOPS pH 5.0 0.5 M NaCl, 100 μM DTNB, DMSO 10%, from EPC) for PR3. mNE (rmELA2 from R&D systems, United Kingdom) was first activated according to the supplier information. In brief, mNE was incubated with recombinant mouse active cathepsin C/DPPIy (rmCathepsin C from R&D systems) in MES 50 mM, NaCl 50 mM, pH 5.5 for 2 h at 37° C. […] The hydrolysis of the substrate and the determination of the residual activity were carried out as explained above for the inhibition of hNE.

[6] = biological target: T1, human neutrophil elastase; assay: enzymatic assay, substrate N-Succinyl-Ala-Ala-Ala-pNA, Morrison equation for tight binders, N=3
Method: Inhibition of the hydrolysis of a chromogenic substrate. […] Briefly, hNE (Elastin products company, EPC, United States) was resuspended at 1 mg·mL⁻¹ in 50 mM sodium acetate buffer pH 5 containing 100 mM NaCl and stored at 4° C. The substrate Succinyl-Ala-Ala-Ala-paraNitroAnilide was dissolved at 1 mM in 0.1 M Tris pH 7.5 with NaCl 0.5 M and NaN3 0.01% (% w/v) and stored at 4° C. 230 μl of substrate (1 mM) were mixed with 10 μl of Bovine Serum Albumin 9 μM (BSA, Sigma-Aldrich, Germany) and incubated 20 min at 25° C. in a clear flat bottom 96-well plate (Greiner Bio-One, Belgium). […] Immediately after, the hNE was added to the mix at a final concentration of 50 nM. […] The initial velocity determined in the presence of the ISVD at different Nb: hNE ratios was compared to that measured in the absence of the ISVD, to determine the residual activity. The delay between the addition of hNE and the first measurement was about 100 seconds. […] In some experiments, the ISVD was preincubated for 15 minutes with the hNE and the complex was added to the substrate.
The Kᵢ was calculated averaging three Kᵢ of three independent curves, each curve representing experiment carried out with a different lot of production of the Nb.

[7] = biological target: T1, human neutrophil elastase; assay: BLI, comparison of the values in Table 2
[8] = biological target: T4, porcine pancreatic elastase (pig, UniProt P00772 27-266); assay: BLI, biotinylated NbE201 on streptavidin sensors, protease in solution
T4 construct: also called pPE; PPE
T4 sequence (P00772 27-266): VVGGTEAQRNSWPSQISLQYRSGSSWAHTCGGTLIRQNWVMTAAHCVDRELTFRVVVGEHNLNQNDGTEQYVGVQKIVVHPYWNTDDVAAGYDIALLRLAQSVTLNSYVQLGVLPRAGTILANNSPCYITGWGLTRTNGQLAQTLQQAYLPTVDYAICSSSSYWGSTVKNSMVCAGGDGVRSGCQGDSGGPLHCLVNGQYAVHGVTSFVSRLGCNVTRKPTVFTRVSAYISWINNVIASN
Method: (§1) The biosensors were then immersed in a 50 nM solution of a serine protease. The proteases tested were human cathepsin G (hCG), human proteinase 3 (hPR3), mouse pancreatic elastase (mPE), mouse neutrophil elastase (mNE) and porcine pancreatic elastase (pPE). hNE was used a positive control. The association and dissociation were measured for 70 s and 320 s respectively, in kinetic buffer (KB, Sartorius). The experiments were carried out at 30° C. in 384-wells black-bottom microplates in polypropylene (Greiner Bio-One, Belgium) and with orbital agitation (1000 rpm).

human cathepsin G = biological target: T5, human cathepsin G (human, UniProt P08311 21-244); assay: as above
T5 construct: also called hCG; CG
T5 sequence (looked up): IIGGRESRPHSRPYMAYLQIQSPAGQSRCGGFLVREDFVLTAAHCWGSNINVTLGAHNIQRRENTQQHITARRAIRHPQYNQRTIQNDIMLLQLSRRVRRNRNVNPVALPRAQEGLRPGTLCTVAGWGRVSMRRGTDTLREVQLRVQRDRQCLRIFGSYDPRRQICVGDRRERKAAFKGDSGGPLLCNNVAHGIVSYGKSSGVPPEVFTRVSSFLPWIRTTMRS
Method: as §1

human proteinase 3 [9] = biological target: T2, human proteinase 3; assay: as above
Method: as §1

[10] = biological target: T3, mouse neutrophil elastase; assay: BLI (Octet HTX), NbE201_Cter Biot on streptavidin sensor, mNE as analyte, 1:1 fit, N=1
Method: FIG. 9. […] On the x-axis, the time in seconds. On the y-axis, the interference signal in nm. The dashed line separates the association step from the dissociation step. In black, the experimental signal. In grey, the fitting using a 1:1 model. The mNE concentrations tested are 100-50-25-12.5-6.25-3.125 nM, from top to bottom. Association and dissociation kinetics were measured for 300 s and 600 s respectively. The obtained sensorgrams were fitted to a 1:1 model by using the Data Analysis Octet Software Version 10.0 (Sartorius) to derive the rate constants for association (kₒₙ) and dissociation (koff) and the equilibrium dissociation constant (KD=koff/kₒₙ).
(§2) Then, the biosensors were immersed in a solution of hNE at different concentrations ([…]-0.753 nM). Association and dissociation kinetics were measured for 180 s and 300 s respectively, in 10×KB buffer. All the experiments were carried out at 30° C. in 96-wells or 384-wells black-bottom microplates in polypropylene (Greiner Bio-One, Belgium) and with orbital agitation (1500 rpm). The sensorgrams obtained were fitted globally to a 1:1 model to derive the rate constants for association (kₒₙ) and dissociation (koff) and the equilibrium dissociation constant (KD=koff/kₒₙ). […] were carried out. The error on KD was calculated using the following equation: […]

[11] = biological target: T1, human neutrophil elastase; assay: BLI (Octet HTX), biotinylated NbE201 on streptavidin sensor, hNE as analyte, global 1:1 fit, N=2
Method: FIG. 6. […] On the x-axis, the time in seconds. On the y-axis, the interference signal in nm. A vertical dashed line divides the association step from the dissociation step. […] Each curve (in black) represents measured data (□□) referring to a single concentration of hNE used: 25 nM, 6.25 nM, 3.125 nM, 1.563 nM and 0.753 nM (from top to bottom). In grey, is represented the fitting of the data from which the KD value and kinetic parameters were derived. Data were fitted accordingly to a 1:1 ligand model by using the Data Analysis Octet Software Version 10.0 (Satorius). Independent replicates of the experiment were done (N=2) and the mean (±st. dev.) of the kinetics parameters measured and indicated in Table 2.
as §2

- IC50, inhibition of elastin hydrolysis by hNE (132 nM) [1]: 488 nM
- fold inhibitory activity relative to mNE [1]: ~10 fold
- molar ratio inhibitor:hNE for total elastase inhibition in vitro [1]: 3 NbE201:hNE molar ratio
- inhibition of protease activity at NbE201:enzyme ratio of 60 (human proteinase 3 [2]): 20%
- IC50, inhibition of hydrolysis of N-Succinyl-Ala-Ala-Ala-paraNitroAnilide by hNE (50 nM) [3]: 38.3 nM
- IC50, inhibition of hydrolysis of MeOSuc-Ala-Ala-Pro-Val-AMC by mNE (14.7 nM) [4]: 49.4 nM
- Ki [5]: 38.8 nM
- Ki [6]: 4.1 nM
B1: NbE201 (VHH)
VHH: QVQLQESGGGLVQAGGSLRLSCVVPGRTISLYRMGWFRQAPGKEREFVAGINWSGDMTDYVDSVKGRFTISRDNAKNTVYLEMNSLKPEDTAIYYCTADPKLLPLADSSYGYWGQGTQVTVSS
notes: Llama VHH made in the periplasm of E. coli WK6 (pHEN6 vector) and purified by IMAC; This form was used in the enzymatic assays and for crystallisation; also called NbE201 wt; NbE201-WT

- fold affinity relative to mNE [7]: ~10 fold
- binding result [8]: no binding (tested: 50 nM)
- binding result (human cathepsin G): no binding (tested: 50 nM)
- binding result (human proteinase 3 [9]): no binding (tested: 50 nM)
- Kd [10]: 49 nM
- koff [10]: 0.019 s⁻¹
- kon [10]: 390000 M⁻¹ s⁻¹
- Kd [11]: 1.3 nM
- koff [11]: 0.0032 s⁻¹
- kon [11]: 2.6e+06 M⁻¹ s⁻¹
B2: biotinylated NbE201 (VHH)
VHH: B1 VHH
modifications: C-terminal Cys biotinylated with EZ-Link Maleimide-PEG2-Biotin
notes: Form immobilised on streptavidin sensors in all BLI experiments; It was produced in the pHEN25 vector and biotinylated site-specifically on its C-terminal Cys; also called NbE201_Cter Biot; biotinylated ISVD NbE201
